Source: FireProtDB (doi:10.1002/pro.5560010709)

B1: Ribonuclease pancreatic, P61823 (parent)
chain: MALKSLVLLSLLVLVLLLVRVQPSLGKETAAAKFERQHMDSSTSAASSSNYCNQMMKSRNLTKDRCKPVNTFVHESLADVQAVCSQKNVACKNGQTNCYQSYSTMSITDCRETGSSKYPNCAYKTTQANKHIIVACEGNPYVPVHFDASV

Variants of: B1
Settings: Bos taurus, pH 4.2, Thermal, CD, Sodium acetate 0.01 M, NaCl 0.1 M, reversible: yes, structure 1RTB, whole UniProt chain shown; for ddG of mutation (higher = less stable) / heat capacity change of unfolding: 56.2 °C

Variant	ddG of mutation (higher = less stable)	heat capacity change of unfolding	Tm	change of melting temperature, mutant - wild type (higher = more stable)
P140A	3.2 kcal/mol	2.2 kcal/mol/K	45.5 °C	-10.5 °C
P140G	2.8 kcal/mol	2.2 kcal/mol/K	45.5 °C	-10.5 °C
P119A	2.7 kcal/mol	2.2 kcal/mol/K	46.5 °C	-9.5 °C
P119S	2.1 kcal/mol	2.2 kcal/mol/K	47.5 °C	-8.5 °C
P119A P140G	4.2 kcal/mol	2.2 kcal/mol/K	36 °C	-20 °C
